As usually defined, the Ki is a dissociation constant, usually derived from enzyme kinetics or from competition with a known ligand.

The labels stand for the following.
T1: human recombinant GIP receptor (human, UniProt P48546 22-466)
T1 construct: whole, on cells; Assayed as washed membranes of CHO-K1 cells expressing the receptor; also called hGIP receptor
T1 sequence (looked up): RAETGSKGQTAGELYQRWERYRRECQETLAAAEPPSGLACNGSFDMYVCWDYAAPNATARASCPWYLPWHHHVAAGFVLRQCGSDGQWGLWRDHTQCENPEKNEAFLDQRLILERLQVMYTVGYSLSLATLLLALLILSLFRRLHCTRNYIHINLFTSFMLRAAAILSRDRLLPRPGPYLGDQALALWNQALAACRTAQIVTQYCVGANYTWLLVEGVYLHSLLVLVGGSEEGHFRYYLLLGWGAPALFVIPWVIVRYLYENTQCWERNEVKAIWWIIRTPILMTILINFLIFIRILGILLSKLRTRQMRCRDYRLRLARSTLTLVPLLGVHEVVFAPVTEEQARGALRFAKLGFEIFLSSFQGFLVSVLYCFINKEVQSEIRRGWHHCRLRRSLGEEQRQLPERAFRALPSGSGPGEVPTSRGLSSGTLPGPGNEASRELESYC

B1: (A5c^7, Nle^14)hGIP(6-30)-NH2 (peptide)
peptide: FXSDYSIAXDKIHQQDFVNWLLAQK
modifications: A5c (1-amino-1-cyclopentanecarboxylic acid) at 7; Nle (norleucine) at 14; hGIP numbering; C-terminal amide
notes: Synthetic analogue of human GIP
B2: (4Hppa^2, 4Hyp^3, A6c^7)hGIP(2-42)-OH (peptide)
peptide: XXGTFXSDYSIAMDKIHQQDFVNWLLAQKGKKNDWKHNITQ
modifications: 4Hppa (3-(4-hydroxyphenyl)propionic acid) at 2; 4Hyp at 3; A6c at 7; hGIP numbering; C-terminal free acid
notes: as for B1
B3: (Ac-A6c^7, Gln^43)hGIP(7-43)-OH (peptide)
peptide: XSDYSIAMDKIHQQDFVNWLLAQKGKKNDWKHNITQQ
modifications: N-terminal acetyl (Ac); A6c at 7; added Gln at 43; hGIP numbering; C-terminal free acid
notes: Synthetic analogue of human GIP with an added residue 43
B4: [Ac-A6c^7, Orn^31(N-C(O)-(CH2)12-CH3)]hGIP(7-42)-OH (peptide)
peptide: Ac-[Ac6c]SDYSIAMDKIHQQDFVNWLLAQK[Orn](Myristoyl)KKNDWKHNITQ-OH
notes: Synthetic analogue of human GIP; also called [Ac-Ac6c^7, Orn(N-C(O)-(CH2)12-CH3)^31]hGIP(7-42)-OH
B5: [Ac-Phe^6, A6c^7, Cys(Psu)^31]hGIP(6-31)-NH2 (peptide)
peptide: FXSDYSIAMDKIHQQDFVNWLLAQKC
modifications: N-terminal acetyl (Ac) on Phe 6; A6c at 7; Cys(Psu) at 31; hGIP numbering; C-terminal amide
notes: as for B1
B6: [Ac-A6c^7, Cys(Psu)^31]hGIP(7-31)-NH2 (peptide)
peptide: XSDYSIAMDKIHQQDFVNWLLAQKC
modifications: N-terminal acetyl (Ac); A6c at 7; Cys(Psu) at 31; hGIP numbering; C-terminal amide
notes: as for B1
B7: (Ac-A6c^7, Cys(Psu)^31]hGIP(7-34)-NH2 (peptide)
peptide: XSDYSIAMDKIHQQDFVNWLLAQKCKKN
modifications: N-terminal acetyl (Ac); A6c at 7; Cys(Psu) at 31; hGIP numbering; C-terminal amide
notes: as for B1
B8: (Ac-4Hyp^3, A6c^7)hGIP(3-42)-OH (peptide)
peptide: XGTFXSDYSIAMDKIHQQDFVNWLLAQKGKKNDWKHNITQ
modifications: N-terminal acetyl (Ac); 4Hyp (4-hydroxyproline) at 3; A6c at 7; hGIP numbering; C-terminal free acid
notes: as for B1

Primed or numbered codes have the meaning given here. Where no end group is shown, it is not given here. [ ]: non-standard residue; d: D form. The star is where a group is joined. Psu″ = N-propylsuccinimide on the Cys thiol (Cys(Psu)), CCCN1C(=O)CC(*)C1=O; Psu(3) = N-propylsuccinimide on Cys S, CCCN1C(=O)CC(*)C1=O; Hsu = N-hexylsuccinimide on Cys S, CCCCCCN1C(=O)CC(*)C1=O; Psu = N-propylsuccinimide (on the Cys sulfur); 2Nal = N[C@@H](Cc1ccc2ccccc2c1)C(=O)O; d2Nal = N[C@H](Cc1ccc2ccccc2c1)C(=O)O; Cyclohexanecarbonyl = O=C(C1CCCCC1)*; Myristoyl = CCCCCCCCCCCCCC(=O)*; Cys(Psu) = not defined here; Decanoyl = CCCCCCCCCC(=O)*; Ac6c = NC1(C(=O)O)CCCCC1; Nle = CCCC[C@H](N)C(=O)O; Orn = NCCC[C@H](N)C(=O)O; Hexanoyl = CCCCCC(=O)*; Aib = CC(C)(N)C(=O)O

The assay deals with T1, human recombinant GIP receptor. In words: radioligand competition, [125I]GIP on membranes of CHO-K1 cells expressing human GIP receptor.
Turning to B1, the inhibition constant Ki was 734 nM.
Consider FISDY[Aib]IA[Nle]DKIHQQDFVNWLLAQK-NH2 (Synthetic analogue of human GIP) [(Aib^11, Nle^14)hGIP(6-30)-NH2], for which the Ki was 170 nM.
Take Decanoyl-[Ac6c]SDYSIAMDKIHQQDFVNWLLAQKGKK[Orn](Decanoyl)DWKHNITQ-OH (Synthetic analogue of human GIP) [[CH3-(CH2)8-C(O)-A6c^7, Orn^34(N-C(O)-(CH2)8-CH3)]hGIP(7-42)-OH]: the Ki is 164 nM.
For B2 the value was 294 nM; for XEGTFISDYSIXMDKIHQQDFVNWLLAQKGKKNDWKHNITQ (4Hppa at 2; Aib at 13; hGIP numbering; C-terminal free acid, Synthetic analogue of human GIP) [(4Hppa^2, Aib^13)hGIP(2-42)-OH)], 12.9 nM.
In the case of XEGTFISDYXIAMDKIHQQDFVNWLLAQKGKKNDWKHNITQ (4Hppa at 2; A6c at 11; hGIP numbering; C-terminal free acid, Synthetic analogue of human GIP) [(4Hppa^2, A6c^11)hGIP(2-42)-OH] it was 91.8 nM.
For XPGTFISDYSIAXDKIHQQDFVNWLLAQKGKKNDWKHNITQ (4Hppa at 2; Pro at 3; Nle at 14; hGIP numbering; C-terminal free acid, Synthetic analogue of human GIP) [(4Hppa^2, Pro^3, Nle^14)hGIP(2-42)-OH] the value was 800 nM; for XEGTFISDYSIAXDKIHQQDFVNWLLAQKGKKNDWKHNITQ (4Hppa at 2; A6c at 14; hGIP numbering; C-terminal free acid, Synthetic analogue of human GIP) [(4Hppa^2, A6c^14)hGIP(2-42)-OH], 50.4 nM.
Consider FXSDYSIAMDKIHQQDFVNWLLAQKC (A6c at 7; Cys(Psu) at 31; hGIP numbering; C-terminal amide, Synthetic analogue of human GIP) [[A6c^7, Cys(Psu)^31]hGIP(6-31)-NH2], for which the Ki is 101 nM.
As to Ac-[Ac6c]SDYSIAMDKIHQQDFVNWLLAQKC(Psu(3))KKNDWKHNITQ-OH (Synthetic analogue of human GIP) [[Ac-A6c^7, Cys(Psu)^31]hGIP(7-42)-OH], the Ki worked out at 963 nM.
For Ac-[Ac6c]SDYSIAMDKIHQQDFVNWLLAQKGC(Psu)KNDWKHNITQ-OH (Synthetic analogue of human GIP) [[Ac-A6c^7, Cys(Psu)^32]hGIP(7-42)-OH] the value was 687 nM; for Ac-[Ac6c]SDYSIAMDKIHQQDFVNWLLAQKGKKNDWKHNC(Psu″)TQ-OH (Synthetic analogue of human GIP) [[Ac-A6c^7, Cys(Psu)^40]hGIP(7-42)-OH], 532 nM; for Ac-[Ac6c]SDYSIAMDKIHQQDFVNWLLAQKGKC(Psu)NDWKHNITQ-OH (Synthetic analogue of human GIP) [[Ac-A6c^7, Cys(Psu)^33]hGIP(7-42)-OH], 417 nM.
For Ac-[Ac6c]SDYSIAMDKIHQQDFVNWLLAQKGKKNDWKC(Psu″)NITQ-OH (Synthetic analogue of human GIP) [[Ac-A6c^7, Cys(Psu)^38]hGIP(7-42)-OH] the value was 333 nM; for Ac-[Ac6c]SDYSIAMDKIHQQDFVNWLLAQKGKKNC(Psu)WKHNITQ-OH (Synthetic analogue of human GIP) [[Ac-A6c^7, Cys(Psu)^35]hGIP(7-42)-OH], 486 nM.
Regarding Ac-[Ac6c]SDYSIAMDKIHQQDFVNWLLAQKGKKC(Psu)DWKHNITQ-OH (Synthetic analogue of human GIP) [[Ac-A6c^7, Cys(Psu)^34]hGIP(7-42)-OH], the Ki worked out at 735 nM.
For Ac-[Ac6c]SDYSIAMDKIHQQDFVNWLLAQKGKKNDWC(Psu″)HNITQ-OH (Synthetic analogue of human GIP) [[Ac-A6c^7, Cys(Psu)^37]hGIP(7-42)-OH] the value was 127 nM; for Ac-[Ac6c]SDYSIAMDKIHQQDFVNWLLAQKGKKNDC(Psu)KHNITQ-OH (Synthetic analogue of human GIP) [[Ac-A6c^7, Cys(Psu)^36]hGIP(7-42)-OH], 442 nM; for Ac-[Ac6c]SDYSIAMDKIHQQDFVNWLLAQKGKKNDWKHC(Psu″)ITQ-OH (Synthetic analogue of human GIP) [[Ac-A6c^7, Cys(Psu)^39]hGIP(7-42)-OH], 75.7 nM.
On to Ac-F[Ac6c]SDYSIAMDKIHQQDFVNWLLAQKC(Psu″)KKNDWKHNITQ-OH (Synthetic analogue of human GIP) [[Ac-Phe^6, A6c^7, Cys(Psu)^31]hGIP(6-42)-OH], for which the Ki worked out at 574 nM.
For Hexanoyl-SDYSIAMDKIHQQDFVNWLLAQK[Cys(Psu)]KKNDWKHNITQ-OH (reading uncertain, Synthetic analogue of human GIP) [[CH3-(CH2)4-C(O)-Ser^8, Cys(Psu)^31]hGIP(8-42)-OH] the value was 205 nM.
Turning to F[Ac6c]SDYSIAMDKIHQQDFVNWLLAQKC(Psu(3))KKNDWKHNITQ-OH (Synthetic analogue of human GIP) [[A6c^7, Cys(Psu)^31]hGIP(6-42)-OH], the Ki was 277 nM.
In the case of FXSDYSIAXDKIHQQDFVNWLLAQK (A6c at 7; Nle at 14; hGIP numbering; C-terminal amide, Synthetic analogue of human GIP) [(A6c^7, Nle^14)hGIP(6-30)-NH2] it was 212 nM.
For B3 the value was 7.92 nM; for B4, 178 nM.
In the case of B5 it was 77.5 nM; in that of Ac-DYSIAMDKIHQQDFVNWLLAQKGK[Cys(Psu)]NDWKHNITQ-OH (reading uncertain, Synthetic analogue of human GIP) [[Ac-Asp^9, Cys(Psu)^33]hGIP(9-42)-OH], 472 nM; in that of Ac-[Ac6c]SDYSIAMDKIHQQDFVNWLLAQK[2Nal]KKNDWKHNITQ-OH (Synthetic analogue of human GIP) [(Ac-A6c^7, 2Nal^31)hGIP(7-42)-OH], 194 nM.
As for B6, the Ki was determined as 48.3 nM.
For FXSDYSIAMDKIHQQDFVNWLLAQK (N-terminal acetyl (Ac) on Phe 6; A6c at 7; hGIP numbering; C-terminal amide, Synthetic analogue of human GIP) [(Ac-Phe^6, A6c^7)hGIP(6-30)-NH2] the value was 68.5 nM; for B7, 115 nM.
For Ac-[Ac6c]SDYSIAMDKIHQQDFVNWLLAQK[d2Nal]KKNDWKHNITQ-OH (X stands for the non-natural residues) [(Ac-A6c^7, D-2Nal^31)hGIP(7-42)-OH] the value was 159 nM.
Take B8: the Ki worked out at 546 nM.
In the case of [Ac6c]SDYSIAMDKIHQQDFVNWLLAQKC(Hsu)KKNDWKHNITQ-OH (Synthetic analogue of human GIP) [[A6c^7, Cys(Hsu)^31]hGIP(7-42)-OH] it was 772 nM; in that of [Ac6c]SDYSIAMDKIHQQDFVNWLLAQKGKK[Orn](Decanoyl)DWKHNITQ-OH (Synthetic analogue of human GIP) [[A6c^7, Orn^34(N-C(O)-(CH2)8-CH3)]hGIP(7-42)-OH], 274 nM; in that of Cyclohexanecarbonyl-SDYSIAMDKIHQQDFVNWLLAQK[Cys(Psu)]KKNDWKHNITQ-OH (reading uncertain, Synthetic analogue of human GIP) [[Chc-Ser^8, Cys(Psu)^31]hGIP(8-42)-OH], 403 nM.

(Values after US20110136724A1 (IPSEN PHARMA S A S, published 2011).)
